Measured values published in PMC7842835, “Production, Purification and Characterization of Recombinant Biotinylated Phytochrome B for Extracellular Optogenetics” (Bio-protocol, 2020).

Target: T1, PhyB(1-651)-AviTag-His6, biotinylated photosensory domain of A. thaliana phytochrome B (A. thaliana, UniProt P14713 1-651, biotin on the AviTag motif (~80% biotinylation); chromophore phycocyanobilin (PCB))
T1 construct: photosensory domain of phytochrome B (PhyB), A. thaliana, amino acids 1-651; Expected mass 74 kDa; also called PhyB-AviTag; source: E. coli BL21 Star (DE3), plasmid pMH1105 with HO1 and PcyA, purified (Ni-NTA IMAC, desalting); not shown: AviTag, C-terminal, kept
T1 sequence (looked up): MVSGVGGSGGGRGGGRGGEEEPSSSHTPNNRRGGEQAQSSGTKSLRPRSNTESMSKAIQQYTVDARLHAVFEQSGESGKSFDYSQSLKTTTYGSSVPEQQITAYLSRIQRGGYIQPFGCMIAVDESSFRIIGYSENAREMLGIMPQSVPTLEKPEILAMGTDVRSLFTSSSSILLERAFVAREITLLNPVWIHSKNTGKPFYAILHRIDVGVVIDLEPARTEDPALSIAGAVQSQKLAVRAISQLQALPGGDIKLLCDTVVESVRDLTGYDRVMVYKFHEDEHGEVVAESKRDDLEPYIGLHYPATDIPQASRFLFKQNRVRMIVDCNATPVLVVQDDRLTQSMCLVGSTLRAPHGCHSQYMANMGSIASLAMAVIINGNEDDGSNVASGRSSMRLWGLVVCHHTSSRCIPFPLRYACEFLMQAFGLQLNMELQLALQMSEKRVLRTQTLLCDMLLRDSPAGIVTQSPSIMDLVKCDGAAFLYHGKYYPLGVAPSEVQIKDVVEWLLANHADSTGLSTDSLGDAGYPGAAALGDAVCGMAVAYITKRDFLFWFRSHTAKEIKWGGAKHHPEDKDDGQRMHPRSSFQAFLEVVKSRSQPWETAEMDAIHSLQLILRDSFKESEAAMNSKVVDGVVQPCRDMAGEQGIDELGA
Assay: SEC; equimolar mixture of PhyB-AviTag (2.2 mg/ml) and GFP-PIF6 (1.2 mg/ml) in protein buffer (PBS, 0.5 mM TCEP), illuminated 3 min with 660 nm light (100 µmol/(m^2·s)), Superdex 200 Increase 10/300 GL run in the dark, 1 ml/min, absorbance at 280, 488 and 671 nm; never frozen and frozen-thawed proteins; compared with 740 nm illumination
Conditions: both partners purified

binding result: binds
B1: GFP-PIF6(1-100)-His6 (domain or fragment, A. thaliana, UniProt Q8L5W7 1-100, looked up)
chain: MMFLPTDYCCRLSDQEYMELVFENGQILAKGQRSNVSLHNQRTKSIMDLYEAEYNEDFMKSIIHGGGGAITNLGDTQVVPQSHVAAAHETNMLESNKHVD
notes: Expected mass 40 kDa; source: E. coli BL21 (DE3)pLysS, plasmid pHB111, purified as described for PhyB-AviTag (Ni-NTA IMAC, desalting); not shown: GFP, N-terminal, kept
